Columns and labels:
Details in all cases: both partners purified
[1] = target: T1, protocadherin-15 EC1+2, wild type, His-tagged (mouse, UniProt Q99PJ1 27-259); assay: thermal scanning (thermal stability shift assay with SYPRO orange); pcdh15 fixed at 0.1 mg/mL (~4 μM), cdh23 0.1 to 0.5 mg/mL (~4 to 20 μM; cdh23:pcdh15 1:1 to 5:1); SEC buffer (20 mM Tris-HCl pH 7.5, 150 mM KCl, 50 mM NaCl, 2 mM CaCl2); 10 to 95°C in 0.2°C steps, 5 s equilibration; read-out: shift of the Tm of pcdh15 (ΔTm)
T1 construct: Protocadherin-15 (PCDH15), mouse, N-terminal fragment EC1+2; pET21a, NdeI/XhoI; predicted molecular weight 27.5 kDa; Held on the Ni-NTA chip by its His tag in SPR; also called pcdh15; pcdh15(WT); not shown: His6, C-terminal, kept

[2] = target: T2, protocadherin-15 EC1+2 G16D, His-tagged (mouse, UniProt Q99PJ1 27-259, G16D); assay: as above
T2 construct: Protocadherin-15 (PCDH15), mouse, N-terminal fragment EC1+2; Mutant of m12 made with QuikChange; Held on the Ni-NTA chip by its His tag in SPR; also called pcdh15(G16D); not shown: His6, C-terminal, kept

[3] = target: T3, protocadherin-15 EC1+2 Q165L, His-tagged (mouse, UniProt Q99PJ1 27-259, Q165L); assay: as above
T3 construct: Protocadherin-15 (PCDH15), mouse, N-terminal fragment EC1+2; Mutant of m12 made with QuikChange; Held on the Ni-NTA chip by its His tag in SPR; also called pcdh15(Q165L); not shown: His6, C-terminal, kept

[4] = target: T4, protocadherin-15 EC1+2 I108N, His-tagged (mouse, UniProt Q99PJ1 27-259, I108N); assay: as above
T4 construct: Protocadherin-15 (PCDH15), mouse, N-terminal fragment EC1+2; Deafness-related missense mutation put into the mouse fragment m12 with QuikChange; also called pcdh15(I108N)

[5] = target: T1, protocadherin-15 EC1+2, wild type, …; assay: SPR; Biacore T100, Ni-NTA chip, 6xHis pcdh15 immobilised, tag-free cdh23 0.25 to 30 μM injected, 25°C, SEC buffer; global kinetic fit with EVILFIT (distribution model)
[6] = target: T1, protocadherin-15 EC1+2, wild type, …; assay: SPR; Biacore T100, Ni-NTA chip, 6xHis pcdh15 immobilised, tag-free cdh23 0.25 to 30 μM injected, 25°C, SEC buffer; KD from binding isotherms (Biacore T100 evaluation software)
[7] = target: T2, protocadherin-15 EC1+2 G16D, His-tagged; assay: SPR; Biacore T100, Ni-NTA chip, 6xHis pcdh15 immobilised, tag-free cdh23 0.25 to 30 μM injected, 25°C, SEC buffer; global kinetic fit with EVILFIT (distribution model)
[8] = target: T2, protocadherin-15 EC1+2 G16D, His-tagged; assay: SPR; Biacore T100, Ni-NTA chip, 6xHis pcdh15 immobilised, tag-free cdh23 0.25 to 30 μM injected, 25°C, SEC buffer; KD from binding isotherms (Biacore T100 evaluation software)
[9] = target: T5, protocadherin-15 EC1+2 H91R, His-tagged (mouse, UniProt Q99PJ1 27-259, H91R); assay: thermal scanning (thermal stability shift assay with SYPRO orange); pcdh15 fixed at 0.1 mg/mL (~4 μM), cdh23 0.1 to 0.5 mg/mL (~4 to 20 μM; cdh23:pcdh15 1:1 to 5:1); SEC buffer (20 mM Tris-HCl pH 7.5, 150 mM KCl, 50 mM NaCl, 2 mM CaCl2); 10 to 95°C in 0.2°C steps, 5 s equilibration; read-out: shift of the Tm of pcdh15 (ΔTm)
T5 construct: Protocadherin-15 (PCDH15), mouse, N-terminal fragment EC1+2; Mutant of m12 made with QuikChange; also called pcdh15(H91R)

Row | Binder | ΔTm of pcdh15 at cdh23:pcdh15 1:1 [1] [°C] | ΔTm of pcdh15 at cdh23:pcdh15 2:1 [1] [°C] | ΔTm of pcdh15 at cdh23:pcdh15 3:1 [1] [°C] | ΔTm of pcdh15 at cdh23:pcdh15 4:1 [1] [°C] | ΔTm of pcdh15 at cdh23:pcdh15 5:1 [1] [°C] | Kd [5] [nM] | koff [5] [s⁻¹] | kon [5] [M⁻¹ s⁻¹] | Kd [6] [nM] | also measured
1 | cadherin-23 EC1+2, wild type, His-tagged (domain or fragment, mouse, Cadherin-23 (CDH23), mouse, N-terminal fragment EC1+2; pET21a, NdeI/XhoI; predicted molecular weight 23.8 kDa; also called cdh23; cdh23(WT)) QVNRLPFFTNHFFDTYLLISEDTPVGSSVTQLLARDMDNDPLVFGVSGEEASRFFAVEPDTGVVWLRQPLDRETKSEFTVEFSVSDHQGVITRKVNIQVGDVNDNAPTFHNQPYSVRIPENTPVGTPIFIVNATDPDLGAGGSVLYSFQPPSPFFAIDSARGIVTVIQELDYEVTQAYQLTVNATDQDKTRPLSTLANLAIIITD | 1.8 ± 0.8 | 3.2 ± 0.7 | 4.1 ± 0.8 | 5 ± 0.7 | 5.5 ± 0.8 |  |  |  |  | ΔTm of pcdh15 at cdh23:pcdh15 1:1 [2]: 3 ± 0.5 °C; ΔTm of pcdh15 at cdh23:pcdh15 2:1 [2]: 4.5 ± 0.7 °C; ΔTm of pcdh15 at cdh23:pcdh15 3:1 [2]: 5.6 °C; ΔTm of pcdh15 at cdh23:pcdh15 4:1 [2]: 6.2 ± 0.1 °C; ΔTm of pcdh15 at cdh23:pcdh15 5:1 [2]: 6.8 ± 0.4 °C; ΔTm of pcdh15 at cdh23:pcdh15 1:1 [3]: 1.1 ± 0.4 °C; ΔTm of pcdh15 at cdh23:pcdh15 2:1 [3]: 1.7 ± 0.7 °C; ΔTm of pcdh15 at cdh23:pcdh15 3:1 [3]: 2.3 ± 0.6 °C; ΔTm of pcdh15 at cdh23:pcdh15 4:1 [3]: 2.7 ± 0.9 °C; ΔTm of pcdh15 at cdh23:pcdh15 5:1 [3]: 3.7 ± 1.1 °C; ΔTm of pcdh15 at cdh23:pcdh15 1:1 [4]: 0 °C; ΔTm of pcdh15 at cdh23:pcdh15 2:1 [4]: 0.2 ± 0.2 °C; ΔTm of pcdh15 at cdh23:pcdh15 3:1 [4]: 0.4 ± 0.1 °C; ΔTm of pcdh15 at cdh23:pcdh15 4:1 [4]: 0.4 ± 0.1 °C; ΔTm of pcdh15 at cdh23:pcdh15 5:1 [4]: 0.5 °C
2 | cadherin-23 EC1+2 F7E, His-tagged (domain or fragment, mouse, Cadherin-23 (CDH23), mouse, N-terminal fragment EC1+2; Mutant of m1 made with QuikChange; also called cdh23(F7E)) QVNRLPEFTNHFFDTYLLISEDTPVGSSVTQLLARDMDNDPLVFGVSGEEASRFFAVEPDTGVVWLRQPLDRETKSEFTVEFSVSDHQGVITRKVNIQVGDVNDNAPTFHNQPYSVRIPENTPVGTPIFIVNATDPDLGAGGSVLYSFQPPSPFFAIDSARGIVTVIQELDYEVTQAYQLTVNATDQDKTRPLSTLANLAIIITD | 1.7 ± 0.6 | 4.8 ± 0.6 | 5.5 ± 0.3 | 5.9 ± 0.2 | 7 ± 0.2 |  |  |  |  | 
3 | cadherin-23 EC1+2 S76V, His-tagged (domain or fragment, mouse, Cadherin-23 (CDH23), mouse, N-terminal fragment EC1+2; Mutant of m1 made with QuikChange; also called cdh23(S76V)) QVNRLPFFTNHFFDTYLLISEDTPVGSSVTQLLARDMDNDPLVFGVSGEEASRFFAVEPDTGVVWLRQPLDRETKVEFTVEFSVSDHQGVITRKVNIQVGDVNDNAPTFHNQPYSVRIPENTPVGTPIFIVNATDPDLGAGGSVLYSFQPPSPFFAIDSARGIVTVIQELDYEVTQAYQLTVNATDQDKTRPLSTLANLAIIITD | 1.7 ± 1 | 3 ± 1.7 | 4 ± 1.5 | 5.1 ± 1.8 | 5.4 ± 1.9 |  |  |  |  | 
4 | cadherin-23 EC1+2 T15E, His-tagged (domain or fragment, mouse, Cadherin-23 (CDH23), mouse, N-terminal fragment EC1+2; Mutant of m1 made with QuikChange; also called cdh23(T15E)) QVNRLPFFTNHFFDEYLLISEDTPVGSSVTQLLARDMDNDPLVFGVSGEEASRFFAVEPDTGVVWLRQPLDRETKSEFTVEFSVSDHQGVITRKVNIQVGDVNDNAPTFHNQPYSVRIPENTPVGTPIFIVNATDPDLGAGGSVLYSFQPPSPFFAIDSARGIVTVIQELDYEVTQAYQLTVNATDQDKTRPLSTLANLAIIITD | 2.3 ± 0.4 | 3.9 | 4.8 ± 0.1 | 6 ± 0.5 | 6.7 ± 0.6 |  |  |  |  | ΔTm of pcdh15 at cdh23:pcdh15 1:1 [2]: 2.4 ± 0.4 °C; ΔTm of pcdh15 at cdh23:pcdh15 2:1 [2]: 4.5 ± 0.8 °C; ΔTm of pcdh15 at cdh23:pcdh15 3:1 [2]: 5.5 ± 0.7 °C; ΔTm of pcdh15 at cdh23:pcdh15 4:1 [2]: 6.5 ± 1.2 °C; ΔTm of pcdh15 at cdh23:pcdh15 5:1 [2]: 7.2 ± 1.1 °C
5 | cadherin-23 EC1+2 (residues 1-205) F7E, tagless (domain or fragment, mouse, an Ala residue included between CDH23 EC2 and the intein tag to improve cleavage efficiency; Mutant of m8; That the added Ala stays on the C-terminus after cleavage is surmised; also called cdh23(F7E)) QVNRLPEFTNHFFDTYLLISEDTPVGSSVTQLLARDMDNDPLVFGVSGEEASRFFAVEPDTGVVWLRQPLDRETKSEFTVEFSVSDHQGVITRKVNIQVGDVNDNAPTFHNQPYSVRIPENTPVGTPIFIVNATDPDLGAGGSVLYSFQPPSPFFAIDSARGIVTVIQELDYEVTQAYQLTVNATDQDKTRPLSTLANLAIIITDA |  |  |  |  |  | 3250 ± 250 | 0.22 ± 0.04 | 66000 | 1580 ± 30 | 
6 | cadherin-23 EC1+2 (residues 1-205) S76V, tagless (domain or fragment, mouse, an Ala residue included between CDH23 EC2 and the intein tag to improve cleavage efficiency; Mutant of m8; That the added Ala stays on the C-terminus after cleavage is surmised; also called cdh23(S76V)) QVNRLPFFTNHFFDTYLLISEDTPVGSSVTQLLARDMDNDPLVFGVSGEEASRFFAVEPDTGVVWLRQPLDRETKVEFTVEFSVSDHQGVITRKVNIQVGDVNDNAPTFHNQPYSVRIPENTPVGTPIFIVNATDPDLGAGGSVLYSFQPPSPFFAIDSARGIVTVIQELDYEVTQAYQLTVNATDQDKTRPLSTLANLAIIITDA |  |  |  |  |  | 2790 ± 880 | 0.18 ± 0.01 | 68800 | 1160 ± 560 | 
7 | cadherin-23 EC1+2 (residues 1-205) T15E, tagless (domain or fragment, mouse, an Ala residue included between CDH23 EC2 and the intein tag to improve cleavage efficiency; Mutant of m8; That the added Ala stays on the C-terminus after cleavage is surmised; also called cdh23(T15E)) QVNRLPFFTNHFFDEYLLISEDTPVGSSVTQLLARDMDNDPLVFGVSGEEASRFFAVEPDTGVVWLRQPLDRETKSEFTVEFSVSDHQGVITRKVNIQVGDVNDNAPTFHNQPYSVRIPENTPVGTPIFIVNATDPDLGAGGSVLYSFQPPSPFFAIDSARGIVTVIQELDYEVTQAYQLTVNATDQDKTRPLSTLANLAIIITDA |  |  |  |  |  | 2050 ± 100 | 0.11 ± 0.01 | 55100 | 880 ± 60 | Kd [7]: 1420 ± 50 nM; koff [7]: 0.09 s⁻¹; kon [7]: 61400 M⁻¹ s⁻¹; Kd [8]: 620 ± 110 nM
8 | cadherin-23 EC1+2 T79E, His-tagged (domain or fragment, mouse, Cadherin-23 (CDH23), mouse, N-terminal fragment EC1+2; Mutant of m1 made with QuikChange; also called cdh23(T79E)) QVNRLPFFTNHFFDTYLLISEDTPVGSSVTQLLARDMDNDPLVFGVSGEEASRFFAVEPDTGVVWLRQPLDRETKSEFEVEFSVSDHQGVITRKVNIQVGDVNDNAPTFHNQPYSVRIPENTPVGTPIFIVNATDPDLGAGGSVLYSFQPPSPFFAIDSARGIVTVIQELDYEVTQAYQLTVNATDQDKTRPLSTLANLAIIITD |  |  |  |  |  |  |  |  |  | ΔTm of pcdh15 at cdh23:pcdh15 1:1 [9]: 2.1 ± 0.4 °C; ΔTm of pcdh15 at cdh23:pcdh15 2:1 [9]: 4.1 ± 0.5 °C; ΔTm of pcdh15 at cdh23:pcdh15 3:1 [9]: 5.3 ± 1.8 °C; ΔTm of pcdh15 at cdh23:pcdh15 4:1 [9]: 6 ± 1.8 °C; ΔTm of pcdh15 at cdh23:pcdh15 5:1 [9]: 7.3 ± 1.3 °C
